{
  "source": "patent US5705143A",
  "about": "“Biological targeting agents” (Amersham International PLC, priority 1994, dated 1998)",
  "key": {"[1]": {"test_system": "growth hormone", "details": "relative to somatostatin = 100%; cited from earlier work"}, "[2]": {"test_system": "receptor", "details": "Babich et al; in words; cited from earlier work"}, "[3]": {"details": "in words; cited from earlier work"}, "[4]": {"test_system": "somatostatin receptors", "experiment": "Biodistribution in rats: uptake/retention in adrenals and pancreas (somatostatin receptor-enriched tissues)", "format": "in vivo, Male Wistar rats", "details": "rat, i.v.; for Adrenal % Injected dose / Adrenal Relative concentration / Pancreas % Injected dose / Pancreas Relative concentration: carrier free (CF)", "procedure": "In the present invention the peptides studied were radiolabelled with either ^123 I or ^99m Tc and their biodistributions studied in rats with organs of particular interest being the adrenals and pancreas. This is because somatostatin receptors have been shown in vitro to be enriched in a number of tissues including adrenals^(11,12), pancreas^(13,14), pituitary^(11,14) and brain^(15). […] Brain somatostatin receptors are not visualised when the compound is administered in vivo. In this study measurement of pituitary uptake was not sufficiently sensitive to distinguish specific and non-specific effects.\nCarrier Effect on ^123 I--Compounds 1 and 6\nFor ^123 I--Compounds 1 and 6 the effect of carrier peptide on the biodistribution of the carrier-free ^123 I peptide was assessed by preparing 2 ml of a phosphate buffered solution of HPLC-purified carrier-free iodinated peptide as described above but then subdispensing 1 ml of this solution into a second vial containing carrier peptide.\nA similar `carrier-effect` is anticipated for technetium labelled peptides, therefore the only valid comparison of biodistribution data for ^99m Tc and ^123 I labelled peptides is when both are carrier-added (CA).\n(§1) Male Wistar rats were injected intravenously, under light anaesthesia with the test agent. At 2 minutes, 1 hour and 4 hours post-injection animals were sacrificed by cervical dislocation and various organs and tissue samples were removed for assay of radioactive content. The percentage injected dose in all dissected organs was calculated. In addition the % dose/gram tissue and the relative concentration of activity was calculated for selected organs. Relative concentration is the proportion of total activity in the organ divided by the proportion of bodyweight comprised by the organ. Thus, if a compound is uniformly disseminated throughout the body according to tissue weight then a given organ will have a relative concentration=1. A relative concentration>1 implies sequestration and/or retention of the compound and is a useful index where the absolute uptake (% injected dose per organ) is low.\n(§2) Organs in which the test agent were looked for included the adrenals and the pancreas, where somatostatin receptors are known to be enriched (vide supra)."}, "[5]": {"experiment": "Biodistribution in rats: blood, kidney/bladder/urine, liver, gut, thyroid", "format": "in vivo, Male Wistar rats", "details": "rat, i.v., carrier free (CF)", "procedure": "as §1, §2"}, "[6]": {"experiment": "Metabolic stability in rat kidney homogenate", "format": "in vitro ADME", "details": "37° C., approx. 1 and 3 hours, HPLC; FIG. 1; in words", "procedure": "Rat brain and kidney homogenates were produced by homogenising brain (1.71 g) and kidneys (2.41 g) in 10 vols phosphate buffered saline and centrifuging at 2000 rpm for 5 minutes.\nCompound 4 (50 μg) was radiolabelled by stannous reduction of ^99m TcO4^- (0.2 GBq) at pH 9.0.\n^99m Tc-Compound 4 solution (200 μl) was mixed with phosphate buffered saline (800 μl, control) rat kidney homogenate (800 μl) and rat brain homogenate (800 μl) and incubated at 37° C. HPLC analyses using the system described in Example 13 for ^99m Tc labelled peptides were performed on each sample at approx. 1 and 3 hours post-mixing."}, "[7]": {"test_system": "carboxypeptidases", "details": "in words; cited from earlier work"}},
  "note": "Entries after “also recorded” stand apart in the source; their conditions may differ. Bridge positions count the residues as written; N and C are the ends. Square brackets hold non-standard residues; d marks the D form. Peptide text beside a SMILES is read from it. * marks the point of attachment. Phe(ol) = N[C@H](CO)Cc1ccccc1; NHCH(CH2OH)2 = OCC(CO)N*",
  "data": [
    {"compound": "C[C@H](O)[C@@H](NC(=O)[C@@H]1CSSC[C@H](NC(=O)[C@H](N)Cc2ccccc2)C(=O)N[C@@H](Cc2ccccc2)C(=O)N[C@H](Cc2c[nH]c3ccccc23)C(=O)N[C@@H](CCCCN)C(=O)N[C@@H]([C@@H](C)O)C(=O)N1)C(N)=O", "note": "[D-Thr(NH2)]", "values": [
      {"measurement": "Relative potency (%) of growth hormone inhibition in vivo", "setting": "[1]", "result": 1160, "unit": "%"}
    ]},
    {"compound": "C[C@H](O)[C@H](CO)NC(=O)[C@@H]1CSSC[C@H](NC(=O)[C@H](N)Cc2ccccc2)C(=O)N[C@@H](Cc2ccccc2)C(=O)N[C@H](Cc2c[nH]c3ccccc23)C(=O)N[C@@H](CCCCN)C(=O)N[C@@H]([C@@H](C)O)C(=O)N1", "note": "[D-Thr(ol)]", "values": [
      {"measurement": "Relative potency (%) of growth hormone inhibition in vivo", "setting": "[1]", "result": 1100, "unit": "%"}
    ]},
    {"compound": "CSCC[C@H](NC=O)C(=O)N[C@@H](CC(C)C)C(=O)N[C@@H](Cc1ccccc1)C(=O)NCCCCCCNC(=O)c1ccc(NN)nc1", "note": "[HP3, fMLFNH(CH2)6 NH--HYNIC]", "values": [
      {"measurement": "in vitro receptor binding affinity", "setting": "[2]", "result": "marginally better in vitro receptor binding affinity than HP2"}
    ]},
    {"compound": "C[C@@H](O)[C@@H]1NC(=O)[C@H](CCCCN)NC(=O)[C@@H](Cc2c[nH]c3ccccc23)NC(=O)[C@H](Cc2ccccc2)NC(=O)[C@@H](NC(=O)[C@H](N)Cc2ccccc2)CSSC[C@@H](C(=O)N[C@H](CO)[C@@H](C)O)NC1=O", "note": "[Octreotide]", "values": [
      {"measurement": "biological half-life", "setting": "[3]", "result": "much longer biological half-life than natural somatostatin"}
    ]},
    {"compound": "C[C@@H](O)[C@@H]1NC(=O)[C@H](CCCCN)NC(=O)[C@@H](Cc2c[nH]c3ccccc23)NC(=O)[C@H](Cc2ccccc2)NC(=O)[C@@H](NC(=O)[C@H](N)Cc2ccccc2)CSSC[C@@H](C(=O)N[C@H](CO)Cc2ccccc2)NC1=O", "note": "[Phe(ol)] (H-[dF]CF[dW]KTC[Phe(ol)]; disulfide 2-7)", "values": [
      {"measurement": "Relative potency (%) of growth hormone inhibition in vivo", "setting": "[1]", "result": 650, "unit": "%"}
    ]},
    {"compound": "C[C@@H](O)[C@@H]1NC(=O)[C@H](CCCCN)NC(=O)[C@@H](Cc2c[nH]c3ccccc23)NC(=O)[C@H](Cc2ccccc2)NC(=O)[C@@H](NC(=O)[C@H](N)Cc2ccccc2)CSSC[C@@H](C(=O)NC(CO)CO)NC1=O", "note": "[Ser(ol)] (H-[dF]CF[dW]KTC-{NHCH(CH2OH)2}; disulfide 2-7)", "values": [
      {"measurement": "Relative potency (%) of growth hormone inhibition in vivo", "setting": "[1]", "result": 2800, "unit": "%"}
    ]},
    {"compound": "C[C@@H](O)[C@@H]1NC(=O)[C@H](CCCCN)NC(=O)[C@@H](Cc2c[nH]c3ccccc23)NC(=O)[C@H](Cc2ccccc2)NC(=O)[C@@H](NC(=O)[C@H](N)Cc2ccccc2)CSSC[C@@H](C(=O)N[C@H](CO)[C@@H](C)O)NC1=O", "note": "[Thr(ol)]", "values": [
      {"measurement": "Relative potency (%) of growth hormone inhibition in vivo", "setting": "[1]", "result": 7000, "unit": "%"}
    ]},
    {"compound": "I-SS14: 123I labelled Somatostatin-14", "values": [
      {"measurement": "somatostatin (SS) receptor binding in adrenals and pancreas", "setting": "[4]; 2 min, 1 and 4 hours p.i., in words, listed as 123 I-SS14", "result": "can be detected in the adrenal glands and pancreatic tissue; also recorded: marked SS-like binding of ^123 I-SS14 at 2 minutes post-injection (p.i.), but this activity was not retained at 1 and 4 hours p.i"},
      {"measurement": "Adrenal % Injected dose", "setting": "[4]; 2 min pi", "result": 0.19, "unit": "% Injected dose"},
      {"measurement": "Adrenal Relative concentration", "setting": "[4]; 2 min pi", "result": 7.6},
      {"measurement": "Pancreas % Injected dose", "setting": "[4]; 2 min pi", "result": 2.3, "unit": "% Injected dose"},
      {"measurement": "Pancreas Relative concentration", "setting": "[4]; 2 min pi", "result": 4.5},
      {"measurement": "Adrenal % Injected dose", "setting": "[4]; 1 hr pi", "result": 0.01, "unit": "% Injected dose"},
      {"measurement": "Adrenal Relative concentration", "setting": "[4]; 1 hr pi", "result": 0.4},
      {"measurement": "Pancreas % Injected dose", "setting": "[4]; 1 hr pi", "result": 0.3, "unit": "% Injected dose"},
      {"measurement": "Pancreas Relative concentration", "setting": "[4]; 1 hr pi", "result": 0.6},
      {"measurement": "Adrenal % Injected dose", "setting": "[4]; 4 hr pi", "result": 0.01, "unit": "% Injected dose"},
      {"measurement": "Adrenal Relative concentration", "setting": "[4]; 4 hr pi", "result": 0.3},
      {"measurement": "Pancreas % Injected dose", "setting": "[4]; 4 hr pi", "result": 0.2, "unit": "% Injected dose"},
      {"measurement": "Pancreas Relative concentration", "setting": "[4]; 4 hr pi", "result": 0.4},
      {"measurement": "Blood % Injected dose", "setting": "[5]; 2 min pi", "result": 16.2, "unit": "% Injected dose"},
      {"measurement": "Gut % Injected dose", "setting": "[5]; 2 min pi", "result": 9.9, "unit": "% Injected dose"},
      {"measurement": "Kidney, Bladder & Urine % Injected dose", "setting": "[5]; 2 min pi", "result": 3.4, "unit": "% Injected dose"},
      {"measurement": "Liver % Injected dose", "setting": "[5]; 2 min pi", "result": 7.2, "unit": "% Injected dose"},
      {"measurement": "Thyroid % Injected dose", "setting": "[5]; 2 min pi", "result": 0.11, "unit": "% Injected dose"},
      {"measurement": "Blood % Injected dose", "setting": "[5]; 1 hr pi", "result": 5.5, "unit": "% Injected dose"},
      {"measurement": "Gut % Injected dose", "setting": "[5]; 1 hr pi", "result": 19.9, "unit": "% Injected dose"},
      {"measurement": "Kidney, Bladder & Urine % Injected dose", "setting": "[5]; 1 hr pi", "result": 9.9, "unit": "% Injected dose"},
      {"measurement": "Liver % Injected dose", "setting": "[5]; 1 hr pi", "result": 2.2, "unit": "% Injected dose"},
      {"measurement": "Thyroid % Injected dose", "setting": "[5]; 1 hr pi", "result": 1.10, "unit": "% Injected dose"},
      {"measurement": "Blood % Injected dose", "setting": "[5]; 4 hr pi", "result": 6.1, "unit": "% Injected dose"},
      {"measurement": "Gut % Injected dose", "setting": "[5]; 4 hr pi", "result": 12.1, "unit": "% Injected dose"},
      {"measurement": "Kidney, Bladder & Urine % Injected dose", "setting": "[5]; 4 hr pi", "result": 17.9, "unit": "% Injected dose"},
      {"measurement": "Liver % Injected dose", "setting": "[5]; 4 hr pi", "result": 2.4, "unit": "% Injected dose"},
      {"measurement": "Thyroid % Injected dose", "setting": "[5]; 4 hr pi", "result": 2.00, "unit": "% Injected dose"}
    ]},
    {"compound": "somatostatin", "values": [
      {"measurement": "metabolic stability in rat kidney homogenate", "setting": "[6]", "result": "rapidly metabolised"},
      {"measurement": "susceptibility to metabolism by carboxypeptidases", "setting": "[7]", "result": "particularly susceptible to metabolism by carboxypeptidases"}
    ]}
  ]
}
